# Test results from patent US20240350646A1, “METHODS AND COMPOSITIONS FOR DELIVERY TO AND ACROSS THE BLOOD BRAIN BARRIER” (NUtech Ventures, priority 2021, published 2024).
# Read-outs that look alike come from different tables or passages of the source.
# Key:
# human claudin-1 = molecular target: T1, human claudin-1 (Homo sapiens, UniProt O95832); experiment: Microscale thermophoresis (MST) binding
# T1 construct: made in house
# T1 sequence (O95832 1-211): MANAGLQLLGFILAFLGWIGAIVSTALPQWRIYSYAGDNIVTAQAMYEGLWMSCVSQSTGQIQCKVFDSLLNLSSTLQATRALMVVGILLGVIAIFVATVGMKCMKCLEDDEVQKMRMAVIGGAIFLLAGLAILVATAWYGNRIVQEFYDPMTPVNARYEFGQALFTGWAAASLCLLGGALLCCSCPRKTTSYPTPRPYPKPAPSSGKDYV
# Method: Human claudin-1 was expressed and purified as reported previously (Vecchio & Stroud, 2019, PNAS USA, 116:17817-24). MST measurements were performed using a Monolith instrument (NanoTemper Technologies). For experiments with human claudin-1, the assay buffer contained 10 mM Tris HCl, pH 8.0, 100 mM NaCl, 4% glycerol, and 0.04% n-Dodecyl-β-D-Maltopyranoside (β-DDM). NPs and peptides were labeled with AF647 prior to MST analysis as described above. For the binding experiments, the concentration of human claudin-1 was varied from 2.2-73,500 nM and the AF647-labeled C1C2-NP was fixed at 70 nM, while the AF647 labeled NPs and AF647 labeled C1C2 peptide were fixed at 1 and 0.3 μM, respectively. Binding of the AF647 labeled C1C2-NP to human claudin-3, -4, and -9 were tested using 0.4-14000 nM, 0.8-28000 nM, and 0.6-20000 nM, respectively; with the AF647 labeled C1C2-NP fixed at 70 nM. This assay buffer was similar, except β-DDM was replaced with 0.1% n-Undecyl-β-D-Maltopyranoside (beta-UDM). In order to check non-specific binding of β-DDM micelles to the AF647 labeled C1C2-NP, the concentration of beta-DDM was varied from 0.03-900 μM and the concentration of the AF647-labeled C1C2-NP was fixed at 1 μM. A similar experiment was performed wherein the concentration of beta-UDM was varied from 0.3-10,000 μM and the concentration of AF647-labeled control NP was fixed at 1 μM. The non-specific binding of human claudins 4 and 9 to the NP was examined by varying the concentrations of human claudins 4 and 9 from 0.7-20,100 nM and 0.8-31,100 nM, respectively. The human claudin sub-dilutions were mixed with the NPs or peptides and loaded in standard monolith NT.115 capillary tubes for measurement. All experiments were conducted at 23° C. using the nano-red channel of the Monolith instrument and the data were analyzed by using either Monolith analysis software or Graph Pad Prism, version 9 (Graph Pad Software, San Diego, California).
# [1] = middle aged humans of around 40 years of age; cited from earlier work
Binding to human claudin-1 (in words) (human claudin-1),Binding to human claudin-1 (in words) (human claudin-1; listed as C1C2 peptides),Compound,"K^trans, hippocampus [1] [min⁻¹]"
little binding,no binding,C1C2 peptide: Peptide SSVSQSTGQIQSKVDSLLNLNSTQATR (SEQ ID NO: 6) purchased from Genscript; binds first extracellular loop of claudin-1 (Ac-SSVSQSTGQIQSKVDSLLNLNSTQATR-NH2),
,,CNC[C@H](O)[C@@H](O)[C@H](O)[C@H](O)CO.CNC[C@H](O)[C@@H](O)[C@H](O)[C@H](O)CO.O=C([O-])CN(CCN(CC(=O)[O-])CC(=O)O)CCN(CC(=O)O)C(COCc1ccccc1)C(=O)[O-].[Gd+3] (stereo not drawn) [MultiHance],~0.001
